Data taken from PMC9696579 (Nature structural & molecular biology, 2022).

Biological target: mouse PKA-Cα (Mus musculus, UniProt P05132)
Test: Surface plasmon resonance
Conditions: SPR; mouse PKA-Cα; ATP and MgCl2 present

binding to PKA-Cα: no PKA-C binding was observed
B1: SMO pCT WRR mutant: SMO pCT harboring the WRR mutation, GST-tagged for SPR (protein)
chain: KRIKKSKMIAKAFSKRRELLQNPGQELSFSMHTVSHDGPVAGLAFDLNEPSADVSSAAAQHVTKMVAAAGAILPQDVSVTPVATPVPPEEQAN
modifications: left off: GST, end not stated, kept
